Measured values taken from patent publication US11214614B2, “LTBP complex-specific inhibitors of TGFβ and uses thereof” (Scholar Rock, Inc., priority 2019, dated 2022).

Experiments:
[1] = target: huLTBP3 proTGFβ1 (Homo sapiens, UniProt P01137+Q9NS15); assay: Octet (BLI) binding, IgG captured on AHC tips, antigen at 100 nM; conditions: Table 9, cycle 3, IgG1-agly; for Hu LTBP3-proTGFβ1 Kon: 1:1 fit; for Hu LTBP3-proTGFβ1 Koff: 5-minute dissociation
Procedure: (§1) Suitable methods for in vitro binding assays to determine the parameters of binding kinetics include Bio-layer Interferometry (BLI)-based assays such as Octet, and surface plasmon resonance (SPR)-based assays, such as Biacore systems (see, for example: biophysics.bioc.cam.ac.uk/wp-content/uploads/2011/02/Biacore_assay_handbook.pdf).
(§2) The affinity of SR-AB10, SR-AB2 and SR-AB13 was measured by Octet assay. The protocol used to measure the affinity of the antibodies to the complexes provided herein is summarized below.
(§3) • 96 well black polypropylene plates • AHC Octet tips (anti-human IgG Fc capture tips) (FortdBio) • 10× kinetics buffer (FortdBio) (diluted to 1× in PBS) • reiner Bio-One 96-Well Half Area Microplates (VWR cat #82050-044) Procedure:
(§4) Notes: The volume within each well during an Octet experiment is 100 uL.
(§5) A shake speed of 1000 rpm is used for all assay steps.
(§6) Pre-Wet Tips: • Biosensors must be pre-wet in 1× kinetics buffer (lx KB) for at least 10 minutes before starting an experiment. This can be done inside the Octet or on the bench.
(§7) Loading: • Tips are baselined in 1× KB for 1 minute before loading. • AHC tips are loaded with antibody at a concentration of 1 μg/mL (˜7 nM) for 3 minutes. A limit is set so that loading will stop when any one sensor reaches a response of 1 nanometer. • Tips are baselined in buffer for 1 minute after loading. The antibody should not dissociate from the tips during this time.
(§8) Antigen Association: • TGFβ1 in complex with various presentation molecules was associated to the immobilized antibodies at a single concentration of 100 nM in 1× KB.
(§9) Antibody Dissociation: • Dissociation in 1×KB was performed for 3 minutes.
(§10) Data Analysis using ForteBio Data analysis software 8.2: • Processing: align Y axis to last 5 seconds of baseline, perform inter-step correction with align to dissociation, and perform Savitzky-Golay filtering. • Analysis: 1:1 fitting model is utilized. Fitting is local and full. […] Results:
(§11) LTBP complex-specific antibodies from the first round of affinity maturation/optimization (SR-AB14, SR-AB16, SR-AB17, SR-AB18, SR-AB19) were selected for a second round of affinity maturation/optimization (i.e., CDR-H3 mutagenesis as described herein) and particular progeny antibodies (SR-AB20, SR-AB21, SR-AB22, SR-AB23, SR-AB24, SR-AB25, SR-AB26, SR-AB27, SR-AB28, and SR-AB29) were assessed for their ability to bind various proTGFβl constructs. Binding affinities of the optimized antibodies were measured by Octet against human LTBP1-proTGFβI, human LTBP3-proTGFb1, mouse LTBP1-proTGFβ1, mouse LTBP3-proTGFb1, and GARP-proTGFβl complexes, essentially as described in Example 6. In brief, test antibodies were immobilized to the surface of anti-human Fc capture biosensors (AHC) (ForteBio®) and binding was then tested against the various TGFβ1 complexes at a single concentration of 100 nM to assess binding affinities. The antigens were allowed to associate for 3 minutes followed by a 5-minute dissociation. Kinetics buffer (ForteBio®) was used throughout the experiment, and KD was determined using a 1:1 fitting model for each antibody antigen pair.
(§12) Binding affinities of the optimized antibodies were measured by Octet against human LTBP1-proTGFβ1, human LTBP3-proTGFβ1, mouse LTBP1-proTGFβ1, mouse LTBP3-proTGFβ1, and GARP-proTGFβ1 complexes, essentially as described in Example 6. In brief, test antibodies were immobilized to the surface of anti-human Fc capture biosensors (AHC) (ForteBio®) and binding was then tested against the various TGFβ1 complexes at a single concentration of 100 nM to assess binding affinities. The antigens were allowed to associate for 3 minutes followed by a 5-minute dissociation. Kinetics buffer (ForteBio®) was used throughout the experiment, and KD was determined using a 1:1 fitting model for each antibody antigen pair.

[2] = target: T1, huLTBP1 proTGFβ1 (Homo sapiens, UniProt P01137+Q14766); assay: as above; conditions: Table 9, cycle 3, IgG1-agly; for Hu LTBP1-proTGFβ1 Kon: 1:1 fit; for Hu LTBP1-proTGFβ1 Koff: 5-minute dissociation
T1 sequence (P01137 30-390): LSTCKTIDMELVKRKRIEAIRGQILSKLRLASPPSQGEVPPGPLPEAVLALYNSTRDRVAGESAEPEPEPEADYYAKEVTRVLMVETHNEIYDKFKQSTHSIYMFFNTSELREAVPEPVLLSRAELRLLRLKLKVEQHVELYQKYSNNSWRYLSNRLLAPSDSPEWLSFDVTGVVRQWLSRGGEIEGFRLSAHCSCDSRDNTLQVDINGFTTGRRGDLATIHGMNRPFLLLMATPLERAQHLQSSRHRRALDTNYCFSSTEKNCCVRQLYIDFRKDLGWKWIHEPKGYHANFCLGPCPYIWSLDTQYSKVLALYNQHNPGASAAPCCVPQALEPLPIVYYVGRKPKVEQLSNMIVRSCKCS
T1 sequence (Q14766 347-1721 limits assumed): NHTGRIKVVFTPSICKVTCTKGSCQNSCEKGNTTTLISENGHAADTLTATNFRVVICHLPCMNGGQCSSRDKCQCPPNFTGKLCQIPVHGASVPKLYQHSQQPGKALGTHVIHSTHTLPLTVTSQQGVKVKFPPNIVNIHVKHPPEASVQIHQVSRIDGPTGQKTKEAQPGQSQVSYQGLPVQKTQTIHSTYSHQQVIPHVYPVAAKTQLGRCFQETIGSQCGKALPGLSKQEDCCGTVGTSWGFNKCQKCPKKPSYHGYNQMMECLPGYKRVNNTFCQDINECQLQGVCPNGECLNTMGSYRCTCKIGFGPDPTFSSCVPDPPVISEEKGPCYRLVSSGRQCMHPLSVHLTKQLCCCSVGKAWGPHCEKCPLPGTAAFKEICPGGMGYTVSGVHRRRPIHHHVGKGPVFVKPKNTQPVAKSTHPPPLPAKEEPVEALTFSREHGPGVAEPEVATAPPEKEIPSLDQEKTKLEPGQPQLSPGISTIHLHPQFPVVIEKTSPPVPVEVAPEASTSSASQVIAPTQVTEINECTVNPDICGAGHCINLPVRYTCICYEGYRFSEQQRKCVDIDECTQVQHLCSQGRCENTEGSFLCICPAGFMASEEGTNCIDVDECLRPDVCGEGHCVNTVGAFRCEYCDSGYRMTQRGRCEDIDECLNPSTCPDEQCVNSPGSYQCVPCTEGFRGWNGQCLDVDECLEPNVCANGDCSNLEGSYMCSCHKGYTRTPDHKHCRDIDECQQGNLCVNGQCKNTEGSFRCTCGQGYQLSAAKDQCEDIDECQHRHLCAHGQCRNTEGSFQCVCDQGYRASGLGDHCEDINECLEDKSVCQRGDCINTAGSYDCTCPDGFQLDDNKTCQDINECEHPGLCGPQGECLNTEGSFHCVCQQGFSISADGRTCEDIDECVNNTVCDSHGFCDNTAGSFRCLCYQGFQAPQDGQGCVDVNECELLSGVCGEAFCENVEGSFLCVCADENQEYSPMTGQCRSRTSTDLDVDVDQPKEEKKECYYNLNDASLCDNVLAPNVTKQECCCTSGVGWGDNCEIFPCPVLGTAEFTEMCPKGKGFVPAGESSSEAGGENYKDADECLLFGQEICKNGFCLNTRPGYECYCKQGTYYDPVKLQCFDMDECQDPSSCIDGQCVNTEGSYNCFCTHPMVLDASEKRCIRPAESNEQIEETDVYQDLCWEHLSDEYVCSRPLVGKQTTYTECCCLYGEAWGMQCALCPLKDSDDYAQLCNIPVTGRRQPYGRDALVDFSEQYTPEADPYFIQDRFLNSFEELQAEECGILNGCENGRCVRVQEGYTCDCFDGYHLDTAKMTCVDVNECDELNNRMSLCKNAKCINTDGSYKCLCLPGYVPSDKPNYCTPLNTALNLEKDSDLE
Procedure: as §1, §2, §3, §4, §5, §6, §7, §8, §9, §10, §11
as §12, with “pair. […]” for “pair.”

[3] = target: T1, huLTBP1 proTGFβ1; assay: SPR (Biacore 8K) monovalent binding kinetics of Fabs, biotinylated antigen captured; design: biotin (complex biotinylated)
Procedure: A Biacore 8K system was employed to determine the monovalent binding affinity and the kinetic parameters for antigen binding of test antibodies. Association and dissociation kinetics of Fab fragments SR-AB42-HuFab, SR-AB63-HuFab and SR-AB43-HuFab to antigen complexes were measured, and resulting ka, kd and KD are provided below. Briefly, the binding kinetics were evaluated by surface plasmon resonance using Biacore 8K (GE Healthcare). Biotinylated capture antigens were immobilized to the chip (10 nM, ˜200 RU loading). A Biotin CAPture sensor chip was used to capture the biotinylated antigens. Fabs at 10, 5, 2.5, 1.25, and 0.6 nM concentrations were injected over the captured antigens. 0 nM was used as a reference. Affinities of LTBP antibodies to GARP and LRRC33 were confirmed using higher concentration of Fabs (100, 50, 25, 12.5, 6.25 nM). 0 nM was used as a reference. Multi-cycle kinetics was employed where each analyte concentration was injected in a separate cycle and the sensor chip surface was regenerated after each cycle. All the assays were carried out in freshly prepared 1×HBS-EP+buffer (10 mM HEPES, 150 mM NaCl, 3 mM EDTA, 0.05% Tween20, pH 7.4). Data were fit globally to a 1:1 binding model to obtain the kinetic parameters. The sensorgram for 0 nM analyte concentration was used as reference.
• 96 well plates—Greinerbio-one REF 650101 • Microplate Foils—GE Healthcare—CAT #28-9758-16 • Biotin CAPture Kit GE Healthcare product number 28920233 • Biacore running buffer—supplied as a 20× solution, diluted in Milli-Q water, TEKnova CAT #H8022 Method:
These experiments were performed using the Biacore 8K using the method “multi-cycle kinetics/affinity using Biotin CAPture kit.”
Data collection rate was set to 10 Hz and the Biotin CAPture step was performed for 300 seconds with a flow rate of 2 μL/minute. The Biotin CAPture reagent was used after a 1:5 dilution in 1× Biacore running buffer. Biotinylated ligands (the various complexes of TGFβ1) were utilized at a concentration of 10 nM and were immobilized to the sensor chip for 180 seconds with a flow rate of 10 μL/minute. The analytes, which are each of the Fabs, were tested at 10, 5, 2.5, 1.25, and 0.625 nM with a 0 nM control included. Analyte contact time was 120 seconds and the dissociation time was 900 seconds. The regeneration cycle utilized was 120 seconds with a flow rate of 10 μL/minute.
The evaluation method used was “multi-cycle affinity using capture” and a 1:1 binding model was used. […] Global fits were utilized for every KD determination.

[4] = Fab, huLTBP1 proTGFβ1, SR-AB42-HuFab average of five, SR-AB63-HuFab average of four replicate experiments

Chain of huLTBP3 proTGFβ1 (P01137 30-390): as the sequence (P01137 30-390) above
Chain of huLTBP3 proTGFβ1 (Q9NS15 44-1303): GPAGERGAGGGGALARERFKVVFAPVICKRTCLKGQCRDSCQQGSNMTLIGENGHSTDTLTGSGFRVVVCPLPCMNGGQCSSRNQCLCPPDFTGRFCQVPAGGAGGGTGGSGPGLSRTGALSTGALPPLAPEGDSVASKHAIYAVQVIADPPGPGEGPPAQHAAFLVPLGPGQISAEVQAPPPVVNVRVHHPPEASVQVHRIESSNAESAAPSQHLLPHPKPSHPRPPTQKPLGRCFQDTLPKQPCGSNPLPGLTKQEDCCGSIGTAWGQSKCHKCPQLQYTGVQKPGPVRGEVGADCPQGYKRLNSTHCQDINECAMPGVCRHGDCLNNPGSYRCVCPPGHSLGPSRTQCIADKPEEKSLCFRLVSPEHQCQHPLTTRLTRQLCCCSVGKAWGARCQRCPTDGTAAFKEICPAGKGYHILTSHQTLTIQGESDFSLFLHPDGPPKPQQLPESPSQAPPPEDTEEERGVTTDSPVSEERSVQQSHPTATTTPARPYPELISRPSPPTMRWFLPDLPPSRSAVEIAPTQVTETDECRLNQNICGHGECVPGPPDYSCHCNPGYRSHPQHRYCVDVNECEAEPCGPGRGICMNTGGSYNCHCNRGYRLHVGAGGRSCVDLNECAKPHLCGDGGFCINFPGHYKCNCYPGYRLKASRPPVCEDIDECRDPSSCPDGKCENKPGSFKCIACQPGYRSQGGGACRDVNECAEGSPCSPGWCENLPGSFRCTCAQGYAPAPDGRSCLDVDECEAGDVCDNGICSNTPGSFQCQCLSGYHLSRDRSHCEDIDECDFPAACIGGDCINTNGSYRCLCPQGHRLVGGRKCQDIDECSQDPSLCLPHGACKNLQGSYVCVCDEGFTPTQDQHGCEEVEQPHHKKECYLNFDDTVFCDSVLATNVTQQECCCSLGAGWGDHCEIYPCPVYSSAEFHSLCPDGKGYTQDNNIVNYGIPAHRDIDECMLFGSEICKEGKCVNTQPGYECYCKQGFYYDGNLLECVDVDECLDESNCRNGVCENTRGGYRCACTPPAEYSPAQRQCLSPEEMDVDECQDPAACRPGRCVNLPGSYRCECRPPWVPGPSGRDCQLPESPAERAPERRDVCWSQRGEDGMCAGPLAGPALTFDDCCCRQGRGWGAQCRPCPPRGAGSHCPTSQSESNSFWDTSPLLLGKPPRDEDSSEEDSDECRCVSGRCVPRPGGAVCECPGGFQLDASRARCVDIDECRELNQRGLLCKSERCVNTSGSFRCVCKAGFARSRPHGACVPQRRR

B1: SR-AB34: cycle 3 light chain-optimized antibody, lineage SR-AB22; CDRs SEQ ID NO: 130-135 (antibody, V domains shown)
VH: QVQLVESGGGVVQPGRSLRLSCAASGFTFRSYVMHWVRQAPGKGLEWVAVISHEGSLKYYADSVKGRFTISRDNSKNTLYLQMNSLRAEDTAVYYCAVPRIAARRGGFGYWGQGTLVTVSS
VL: NFMLTQPHSVSESPGKTVTISCTRSSGNIDNNYVQWYQQRPGSSPTTVIYEDNQRPSGVPDRFSGSIDSSSNSASLTISGLKTEDEADYYCQSYDYDAQGVVFGGGTKLTVL
Hu LTBP3-proTGFβ1 Kon [1]: 372000 M⁻¹ s⁻¹ | Hu LTBP3-proTGFβ1 Koff [1]: 6.68e-05 s⁻¹ | Hu LTBP1-proTGFβ1 Kon [2]: 259000 M⁻¹ s⁻¹ | Hu LTBP1-proTGFβ1 Koff [2]: 6e-05 s⁻¹

B2: SR-AB39: cycle 3 light chain-optimized antibody, lineage SR-AB22; CDRs SEQ ID NO: 148-153 (antibody, V domains shown)
VH: QVQLVESGGGVVQPGRSLRLSCAASGFTFRSYVMHWVRQAPGKGLEWVAVISHEGSLKYYADSVKGRFTISRDNSKNTLYLQMNSLRAEDTAVYYCAVPRIAARRGGFGYWGQGTLVTVSS
VL: NFMLTQPHSVSESPGKTVTISCTRSSGLIDDNYVQWYQQRPGSSPTTVIYEDAQRPSGVPDRFSGSIDSSSNSASLTISGLKTEDEADYYCQSYDHDEQGVVFGGGTKLTVL
Hu LTBP3-proTGFβ1 Kon [1]: 441000 M⁻¹ s⁻¹ | Hu LTBP3-proTGFβ1 Koff [1]: 6e-05 s⁻¹ | Hu LTBP1-proTGFβ1 Kon [2]: 292000 M⁻¹ s⁻¹ | Hu LTBP1-proTGFβ1 Koff [2]: 6e-05 s⁻¹

B3: SR-AB38: cycle 3 light chain-optimized antibody, lineage SR-AB22; CDRs SEQ ID NO: 142-147 (antibody, V domains shown)
VH: QVQLVESGGGVVQPGRSLRLSCAASGFTFRSYVMHWVRQAPGKGLEWVAVISHEGSLKYYADSVKGRFTISRDNSKNTLYLQMNSLRAEDTAVYYCAVPRIAARRGGFGYWGQGTLVTVSS
VL: NFMLTQPHSVSESPGKTVTISCTRSSGSIDNNYVQWYQQRPGSSPTTVIYEDFIRPSGVPDRFSGSIDSSSNSASLTISGLKTEDEADYYCQSYDDDLQGVVFGGGTKLTVL
Hu LTBP3-proTGFβ1 Kon [1]: 502000 M⁻¹ s⁻¹ | Hu LTBP3-proTGFβ1 Koff [1]: 7.26e-05 s⁻¹ | Hu LTBP1-proTGFβ1 Kon [2]: 327000 M⁻¹ s⁻¹ | Hu LTBP1-proTGFβ1 Koff [2]: 0.000117 s⁻¹

B4: LTBP-SR-AB42 HuFab (antibody, V domains shown)
VH: QVQLVESGGGVVQPGRSLRLSCAASGFTFRSYVMHWVRQAPGKGLEWVAVISHEGSLKYYADSVKGRFTISRDNSKNTLYLQMNSLRAEDTAVYYCARPRIAARRGGFGYWGQGTLVTVSS
VL: NFMLTQPHSVSESPGKTVTISCTRSSGNIDNNYVQWYQQRPGSSPTTVIYEDNQRPSGVPDRFSGSIDSSSNSASLTISGLKTEDEADYYCQSYDYDTQGVVFGGGTKLTVL
Kd ([3]; Table 27, Hu LTBP1-ProTGFβ1): 380 pM

B5: SR-AB41: cycle 3 light chain-optimized antibody, lineage SR-AB23; CDRs SEQ ID NO: 160-165 (antibody, V domains shown)
VH: QVQLVESGGGVVQPGRSLRLSCAASGFTFRSYVMHWVRQAPGKGLEWVAVISHEGSLKYYADSVKGRFTISRDNSKNTLYLQMNSLRAEDTAVYYCARPRIAARRGGFGYWGQGTLVTVSS
VL: NFMLTQPHSVSESPGKTVTISCTRSSGNIDNNYVQWYQQRPGSSPTTVIYEDNQRPSGVPDRFSGSIDSSSNSASLTISGLKTEDEADYYCQSYDYDNQAVVFGGGTKLTVL
Hu LTBP3-proTGFβ1 Kon [1]: 255000 M⁻¹ s⁻¹ | Hu LTBP3-proTGFβ1 Koff [1]: 6e-05 s⁻¹ | Hu LTBP1-proTGFβ1 Kon [2]: 203000 M⁻¹ s⁻¹ | Hu LTBP1-proTGFβ1 Koff [2]: 6e-05 s⁻¹

B6: SR-AB47-HuFab (antibody, V domains shown)
VH: QVQLVESGGGVVQPGRSLRLSCAASGFTFRSYVMHWVRQAPGKGLEWVAVISHEGSGKYYADSVKGRFTISRDNSKNTLYLQMNSLRAEDTAVYYCARPRIAARRGGFGSWGQGTLVTVSS
VL: NFMLTQPHSVSESPGKTVTISCTRSSGNIDYNYVQWYQQRPGSSPTTVIYEDNVRPSGVPDRFSGSIDSSSNSASLTISGLKTEDEADYYCQSYDYDNQAVVFGGGTKLTVL
ka [3, 4]: 1.84e+06 M⁻¹ s⁻¹ | kd [3, 4]: 0.000136 s⁻¹

B7: SR-AB37: cycle 3 light chain-optimized antibody, lineage SR-AB22; CDRs SEQ ID NO: 136-141 (antibody, V domains shown)
VH: QVQLVESGGGVVQPGRSLRLSCAASGFTFRSYVMHWVRQAPGKGLEWVAVISHEGSLKYYADSVKGRFTISRDNSKNTLYLQMNSLRAEDTAVYYCAVPRIAARRGGFGYWGQGTLVTVSS
VL: NFMLTQPHSVSESPGKTVTISCTRSSGLIDDNYVQWYQQRPGSSPTTVIYEDNQRPSGVPDRFSGSIDSSSNSASLTISGLKTEDEADYYCQSYDSDLQRVVFGGGTKLTVL
Hu LTBP3-proTGFβ1 Kon [1]: 545000 M⁻¹ s⁻¹ | Hu LTBP3-proTGFβ1 Koff [1]: 7.58e-05 s⁻¹ | Hu LTBP1-proTGFβ1 Kon [2]: 360000 M⁻¹ s⁻¹ | Hu LTBP1-proTGFβ1 Koff [2]: 0.000118 s⁻¹
